Bridges are numbered along the chain shown (N, C = ends). Where no end group is shown, it is not given here. [ ]: non-standard residue; d: D form. The star is where a group is joined. Acetyl(2-(4-imidazolyl)) = O=C(Cc1c[nH]cn1)*; Aib = CC(C)(N)C(=O)O
Tests used:
Experiment in all cases: cell-based or functional assay
[1] = target: human GLP-1 receptor (human, UniProt P43220 24-463)
[2] = target: human GCG receptor (human, UniProt P47871 26-477)
[3] = target: T1, human GIP receptor (human, UniProt P48546 22-466)
T1 sequence (looked up): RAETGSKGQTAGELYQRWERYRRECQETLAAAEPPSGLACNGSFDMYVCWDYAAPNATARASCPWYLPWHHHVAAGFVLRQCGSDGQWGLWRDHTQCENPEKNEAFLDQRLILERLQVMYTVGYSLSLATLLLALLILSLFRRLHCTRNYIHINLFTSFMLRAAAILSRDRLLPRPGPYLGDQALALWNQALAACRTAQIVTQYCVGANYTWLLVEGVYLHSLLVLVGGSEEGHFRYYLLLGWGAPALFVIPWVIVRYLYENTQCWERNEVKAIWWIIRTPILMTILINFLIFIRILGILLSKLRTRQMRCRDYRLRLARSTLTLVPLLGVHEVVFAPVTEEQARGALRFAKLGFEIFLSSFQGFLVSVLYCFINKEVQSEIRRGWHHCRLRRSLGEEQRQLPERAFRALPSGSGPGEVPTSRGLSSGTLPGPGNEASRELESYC

Chain of human GCG receptor (P47871 26-477): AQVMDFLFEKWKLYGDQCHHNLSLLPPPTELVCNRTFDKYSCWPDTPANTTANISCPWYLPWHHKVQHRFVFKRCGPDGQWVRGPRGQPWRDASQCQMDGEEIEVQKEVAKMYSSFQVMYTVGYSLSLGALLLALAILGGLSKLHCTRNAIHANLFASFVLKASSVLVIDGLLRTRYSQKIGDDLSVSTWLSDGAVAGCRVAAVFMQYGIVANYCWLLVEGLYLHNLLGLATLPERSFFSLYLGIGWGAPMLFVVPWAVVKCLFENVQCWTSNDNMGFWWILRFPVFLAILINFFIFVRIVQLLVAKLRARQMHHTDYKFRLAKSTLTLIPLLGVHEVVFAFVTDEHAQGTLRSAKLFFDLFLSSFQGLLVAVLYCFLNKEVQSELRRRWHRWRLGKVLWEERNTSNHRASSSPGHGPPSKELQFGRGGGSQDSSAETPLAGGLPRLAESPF

Row | Binder | in vitro Activity Compared to Native Peptide (%), vs GLP-1 [1] [%] | in vitro Activity Compared to Native Peptide (%), vs Glucagon [2] [%] | in vitro Activity Compared to Native Peptide (%), vs GIP [3] [%]
1 | HXQGTFTSDCSKYLDERAAQDFVQWLLDGGPSSGAPPPS (HELM PEPTIDE1{H.[Aib].Q.G.T.F.T.S.D.C.S.K.Y.L.D.E.R.A.A.Q.D.F.V.Q.W.L.L.D.G.G.P.S.S.G.A.P.P.P.S.[am]}$$$$V2.0; N-terminus assumed; SMILES CC(C)C[C@H](NC(=O)[C@H](CC(C)C)NC(=O)[C@H](Cc1c[nH]c2ccccc12)NC(=O)[C@H](CCC(N)=O)NC(=O)[C@@H](NC(=O)[C@H](Cc1ccccc1)NC(=O)[C@H](CC(=O)O)NC(=O)[C@H](CCC(N)=O)NC(=O)[C@H](C)NC(=O)[C@H](C)NC(=O)[C@H](CCCNC(=N)N)NC(=O)[C@H](CCC(=O)O)NC(=O)[C@H](CC(=O)O)NC(=O)[C@H](CC(C)C)NC(=O)[C@H](Cc1ccc(O)cc1)NC(=O)[C@H](CCCCN)NC(=O)[C@H](CO)NC(=O)[C@H](CS)NC(=O)[C@H](CC(=O)O)NC(=O)[C@H](CO)NC(=O)[C@@H](NC(=O)[C@H](Cc1ccccc1)NC(=O)[C@@H](NC(=O)CNC(=O)[C@H](CCC(N)=O)NC(=O)C(C)(C)NC(=O)[C@@H](N)Cc1c[nH]cn1)[C@@H](C)O)[C@@H](C)O)C(C)C)C(=O)N[C@@H](CC(=O)O)C(=O)NCC(=O)NCC(=O)N1CCC[C@H]1C(=O)N[C@@H](CO)C(=O)N[C@@H](CO)C(=O)NCC(=O)N[C@@H](C)C(=O)N1CCC[C@H]1C(=O)N1CCC[C@H]1C(=O)N1CCC[C@H]1C(=O)N[C@@H](CO)C(N)=O) [triple agonist of SEQ ID NO: 25] | 82.6 | 0.1 | < 0.1
2 | Y[Aib]QGTFTSDYSKCLDEKRAKEFVQWLLDHHPSSGQPPPS-NH2 (bridge 16-20) [triple agonist of SEQ ID NO: 22] | 20.1 | 140 | 59.7
3 | [Acetyl(2-(4-imidazolyl))]GQGTFTSDLSIQYEEEAQQDFVEWLKDTGPSSGAPPPSHG-NH2 [triple agonist of SEQ ID NO: 20] | < 0.1 | < 0.1 | < 0.1
4 | Y[Aib]QGTFTSDYSKYLDECRAKEFVQWLLDHHPSSGQPPPS-NH2 (bridge 16-20; also: ring type not given here) [triple agonist of SEQ ID NO: 21] | 17.8 | 267 | 22.7
5 | [Acetyl(2-(4-imidazolyl))]GQGTFTSDYSIQLDEIAVRDFVEWLKNGGPSSGAPPPSHG-NH2 [triple agonist of SEQ ID NO: 14] | 28 | < 0.1 | < 0.1
6 | H[Aib]QGTFTSDVSSYLLGQAAKQFIAWLVKGGGPSSGAPPPSC-NH2 [triple agonist of SEQ ID NO: 3] | 1.8 | < 0.1 | < 0.1
7 | Y[Aib]QGTFTSDYSKYLDECRAKEFVQWLKNGGPSSGAPPPS (bridge 16-20; not fully specified (C-terminus)) [triple agonist of SEQ ID NO: 24] | 41.2 | 9.3 | < 0.1
8 | [Acetyl(2-(4-imidazolyl))]GQGTFTSDLSKQMDSERAREFIEWLKNTGPSSGAPPPSHG-NH2 [triple agonist of SEQ ID NO: 18] | < 0.1 | < 0.1 | < 0.1
9 | [Acetyl(2-(4-imidazolyl))]GQGTFTSDLSIQYDSEHQRDFIEWLKDTGPSSGAPPPSHG-NH2 [triple agonist of SEQ ID NO: 19] | < 0.1 | < 0.1 | < 0.1
10 | HXQGTFTSDVSSYLDGQAQKEFIAWLVKGC (HELM PEPTIDE1{H.[Aib].Q.G.T.F.T.S.D.V.S.S.Y.L.D.G.Q.A.Q.K.E.F.I.A.W.L.V.K.G.C.[am]}$$$$V2.0; N-terminus assumed; SMILES CC[C@H](C)[C@H](NC(=O)[C@H](Cc1ccccc1)NC(=O)[C@H](CCC(=O)O)NC(=O)[C@H](CCCCN)NC(=O)[C@H](CCC(N)=O)NC(=O)[C@H](C)NC(=O)[C@H](CCC(N)=O)NC(=O)CNC(=O)[C@H](CC(=O)O)NC(=O)[C@H](CC(C)C)NC(=O)[C@H](Cc1ccc(O)cc1)NC(=O)[C@H](CO)NC(=O)[C@H](CO)NC(=O)[C@@H](NC(=O)[C@H](CC(=O)O)NC(=O)[C@H](CO)NC(=O)[C@@H](NC(=O)[C@H](Cc1ccccc1)NC(=O)[C@@H](NC(=O)CNC(=O)[C@H](CCC(N)=O)NC(=O)C(C)(C)NC(=O)[C@@H](N)Cc1c[nH]cn1)[C@@H](C)O)[C@@H](C)O)C(C)C)C(=O)N[C@@H](C)C(=O)N[C@@H](Cc1c[nH]c2ccccc12)C(=O)N[C@@H](CC(C)C)C(=O)N[C@H](C(=O)N[C@@H](CCCCN)C(=O)NCC(=O)N[C@@H](CS)C(N)=O)C(C)C) [triple agonist of SEQ ID NO: 2] | 5.9 | < 0.1 | < 0.1
11 | Y[Aib]QGTFTSDYSKYLDECRAKEFVQWLLAQKGKKNDWKHNIT (bridge 16-20; not fully specified (C-terminus)) [triple agonist of SEQ ID NO: 23] | 4.01 | 9.3 | < 0.1
12 | [Acetyl(2-(4-imidazolyl))]GQGTFTSDLSKQMDSEAQQLFIEWLKNGGPSSGAPPPSHG-NH2 [triple agonist of SEQ ID NO: 16] | 2.1 | < 0.1 | < 0.1
13 | [Acetyl(2-(4-imidazolyl))]GQGTFTSDLSKQMDEERAREFIEWLLAQKPSSGAPPPSHG-NH2 [triple agonist of SEQ ID NO: 17] | 0.2 | < 0.1 | < 0.1
